Biological target: CXCL12α (Homo sapiens, UniProt P48061)
Experiment: total internal reflection ellipsometry (TIRE) on Ishikawa cell membranes; given as Ka

Kd: 0.714 nM
B1: CXCR4 (protein)
chain: MEGISIYTSDNYTEEMGSGDYDSMKEPCFREENANFNKIFLPTIYSIIFLTGIVGNGLVILVMGYQKKLRSMTDKYRLHLSVADLLFVITLPFWAVDAVANWYFGNFLCKAVHVIYTVNLYSSVLILAFISLDRYLAIVHATNSQRPRKLLAEKVVYVGVWIPALLLTIPDFIFANVSEADDRYICDRFYPNDLWVVVFQFQHIMVGLILPGIVILSCYCIIISKLSHSKGHQKRKALKTTVILILAFFACWLPYYIGISIDSFILLEIIKQGCEFENTVHKWISITEALAFFHCCLNPILYAFLGAKFKTSAQHALTSVSRGSSLKILSKGKRGGHSSVSTESESSSFHSS
